From patent publication US20250025544A1 come the findings set out here.

Test [1] has as its target … (EBV LMP2A, epitope 2) presented by HLA-A*0201 (human; EBV). The experiment in a line: cell-based or functional assay.
For test [2], the target named is … (HCMV pp65, epitope 1) presented by HLA-A*0201 (human; HCMV). Kind of test: cell-based or functional assay.
Where [3] appears, read: scale: luciferase induction relative to uninfected controls.

“TCR recognizing … presented by A*0201 (PDB #3REV), expressed on Jurkat-Lucia NFAT reporter T cells”: in test [1], the in vitro T cell activation assay (luciferase), targeting short cassette A (luciferase induction) came out at 6.1; the in vitro T cell activation assay (luciferase), targeting short cassette B (luciferase induction) was 6.3; the in vitro T cell activation assay (luciferase), targeting short cassette C (luciferase induction) stood at 7.6; the in vitro T cell activation assay (luciferase), targeting short cassette D (luciferase induction) worked out at 7. In test [1], this substance displayed an in vitro T cell activation assay (luciferase), targeting short cassette E (luciferase induction) of 5.9; an in vitro T cell activation assay (luciferase), targeting short cassette F (luciferase induction) of 3.7; an in vitro T cell activation assay (luciferase), targeting short cassette G (luciferase induction) of 7.6; an in vitro T cell activation assay (luciferase), targeting short cassette H (luciferase induction) of 5.4. Besides, in test [1], the in vitro T cell activation assay (luciferase), targeting short cassette I (luciferase induction) turned out to be 6.2; the in vitro T cell activation assay (luciferase), targeting short cassette J (luciferase induction) worked out at 6.4; the induction of luciferase, short cassette AAY (luciferase induction) is 11.3; the luciferase induction, short cassette 9AA worked out at 12. For the same substance, in test [1], the luciferase induction, short cassette 17AA was found to be 10.3; the luciferase induction, short cassette 25AA is 14.6; the luciferase induction, short cassette AAY stood at 11.3; the luciferase induction, short cassette DPP amounted to 1.1. In test [1], this substance returned a luciferase induction, short cassette RR of 8.5.
In test [2], “TCR recognizing … presented by A*0201 (PDB #5D2N), expressed on Jurkat-Lucia NFAT reporter T cells” had an in vitro T cell activation assay (luciferase), targeting short cassette A (luciferase induction) of 32.5; an in vitro T cell activation assay (luciferase), targeting short cassette B (luciferase induction) of 31.8; an in vitro T cell activation assay (luciferase), targeting short cassette C (luciferase induction) of 29.1; an in vitro T cell activation assay (luciferase), targeting short cassette D (luciferase induction) of 29.1. For the same substance, in test [2], the in vitro T cell activation assay (luciferase), targeting short cassette E (luciferase induction) stood at 28.4; the in vitro T cell activation assay (luciferase), targeting short cassette F (luciferase induction) is 20.4; the in vitro T cell activation assay (luciferase), targeting short cassette G (luciferase induction) turned out to be 35; the in vitro T cell activation assay (luciferase), targeting short cassette H (luciferase induction) worked out at 30.3. For the same substance, in test [2], the in vitro T cell activation assay (luciferase), targeting short cassette I (luciferase induction) amounted to 22.5; the in vitro T cell activation assay (luciferase), targeting short cassette J (luciferase induction) was determined as 38.1; the induction of luciferase, short cassette AAY (luciferase induction) was 24.5. In test [2] (setting [3]), this substance registered a luciferase induction, short cassette 9AA of 33.6; a luciferase induction, short cassette 17AA of 42.8; a luciferase induction, short cassette 25AA of 42.3; a luciferase induction, short cassette AAY of 24.5. In test [2] (setting [3]), this substance yielded a luciferase induction, short cassette DPP of 0.9 and a luciferase induction, short cassette RR of 21.7.
